Source: US20260250410A1, “ANTIBODY AND USE THEREOF” (SICHUAN HUIYU PHARMACEUTICAL CO., LTD., priority 2022, published 2026)

Experiments:
Format in all cases: cell-based, human
[1] = tested on: MDA-MB-231 cells; experiment: Endocytosis capacity of single B cell antibodies; conditions: MDA-MB-231, 2 h at 37° C., antibody 1.5 μg/mL
Experimental: The endocytosis capacity of the antibody was detected for 0.5 to 2 hours. MDA-MB-231 cells were subjected to digestion with 5 mM EDTA, and plated at 2×10^4 cells/well after cell counting. After adding an Fc blocker (Human TruStain FcX™, Biolegend, 422302) and blocking at room temperature for 10 mins, a test antibody (1.5 μg/mL) was added, and the mixture was incubated at 4° C. for 30 mins, centrifuged, and washed twice with PBS+2% FBS, then the cells were divided into four equal portions (labeled as 0 h, 0.5 h, 1 h, 2 h), cells labeled as 0.5 h, 1 h, 2 h time points were added to 200 μL of cell culture medium, and cultured at 37° C. for 0.5 h, 1 h, 2 h, respectively. Cells at 0 h point were centrifuged, a secondary antibody (PE anti-human IgG Fc Antibody, Biolegend, 410708) was added, and the mixture was incubated at 4° C. for 30 mins, centrifuged, and washed twice with PBS+2% FBS, and detection was performed using a flow cytometer. After incubation of cells labeled as 0.5 h, 1 h, and 2 h points at 37° C. was completed, a secondary antibody was added (in the same steps as those at 0 h point), Geo-MFI of the signal under the same voltage was collected as detection signal at 0 h, and antibody internalization rate was calculated according to the following equation: Internalization (%)=(Geo-MFI (0 h)-Geo-MFI (2 h))/Geo-MFI (0 h)×100%.

[2] = tested on: MDA-MB-231 cells; experiment: Flow cytometry binding of murine monoclonal antibody to tumor cells; conditions: cells with high expression of CDCP1
Experimental: (§1) Flow cytometry was used to detect the binding capacity of antibody to tumor cells. […] 2.0×10^4 tumor cells were added per well, respectively, and 50 μL (PBS+2% FBS) were added, and after blocking at room temperature with an Fe blocker (Human TruStain FcX™, Biolegend, 422302) for 10 mins, an anti-CDCP1 murine monoclonal antibody at a final concentration of 200 nM was added. The obtained mixture was subjected to a 3-fold serial dilution across 8 concentration points, and incubated at 4° C. for 30 mins, and then incubated with a secondary antibody (PE anti-human IgG Fc Antibody, Biolegend, 410708), detection was performed using a flow cytometer.

[3] = tested on: PC3 cells; experiment: as above; conditions: cells with high expression of CDCP1
Experimental: as §1

B1: SB7: anti-CDCP1 antibody by single B cell technique; VH SEQ ID NO: 277, VL SEQ ID NO: 327 (antibody, V domains shown)
VH: QVQLQQSGPELVSPGESVKISCKGSGYTFTDYAVHWVKQSHSKSLEWIGVKSVYYGITKYSQNFKDKATMTVDKSSSTAYMELARLTSEDSAIYYCARDSYGSSRGYFDYWGQGTTLTVSS
VL: DIKMTQSPSSIYVSPGERVTITCKASQDINSFLSWFQQKPGKSPKTLIYRANRLVDGVPSRFSGSGSGQDYSLTISSLEYEDMGIYYCLQYDEFPRTFGGGTKLEIK
modifications: SB7 heavy chain variable region; SB7 light chain variable region
Internalization MDA-MB-231 (%) [1]: 31.67%

B2: SB6: anti-CDCP1 antibody by single B cell technique; VH SEQ ID NO: 276, VL SEQ ID NO: 326 (antibody, V domains shown)
VH: QGQMQQSGAELVKPGASVKLSCKTSGFTFNSSYITWLKQKPGQSLEWIAWIFAGTGGTYYNEKFTDKAQLTVDTTSSTAYMQFSSLTTEDSAIYYCARHGLGYDYWGQGTTLTVSS
VL: SIVMTQTPKFLLVSAGDRVTITCKASQSVNTDVAWYQQKSGQSPKLLIYSASNRYTGVPDRFTGSGYGTDFTFTISTVQAEDLAVYFCQQDHSSPPWTFGGGTKLEIK
modifications: SB6 heavy chain variable region; SB6 light chain variable region
Internalization MDA-MB-231 (%) [1]: 63.21%

B3: SB1: anti-CDCP1 antibody by single B cell technique; VH SEQ ID NO: 271, VL SEQ ID NO: 321 (antibody, V domains shown)
VH: QVQLQQSGPDLVRPGESVKISCKGSGYTFTDHAIHWVRQSHAKSLEWIGVISFSYDNTKYNQNFKGKATMTVDKSSNTAYMELARLTSEDSAIYYCARDCYGSNRGYFDYWGQGTTLTVSS
VL: DIRMTQSPSSMYASLGERVTITCKASQDINRFLSWFLQRPGKAPKTLIYRANNLVEGVPSRFSGSGSGQDYSLIISNLEYEDMGIYYCLQYDEFPRTFGGGTKLEIK
modifications: SB1 heavy chain variable region; SB1 light chain variable region
Internalization MDA-MB-231 (%) [1]: 34.65%

B4: SB4: anti-CDCP1 antibody by single B cell technique; VH SEQ ID NO: 274, VL SEQ ID NO: 324 (antibody, V domains shown)
VH: QVQLQQSGAELVRPGTSVKISCKASGYTFTNYWLGWVKQRPGHGLEWIGDNYPGDNYRNFNEKFKGKATLTTDASSSTAYLQLSSLISEDSAVYFCTRSGGSRYYTMDYWGQGTSVTVSS
VL: DIVMTQAAFSNPVTLGTSASISCRSSRSLLHNNGITYLYWYLQKPGQSPQLLIYQMSNLASGVPDRFHSSGSGTDFTLSISRVEAEDVGVYYCAQNLDLPYTFGGGTKLEIK
modifications: SB4 heavy chain variable region; SB4 light chain variable region
Internalization MDA-MB-231 (%) [1]: 83.16%

B5: SB8: anti-CDCP1 antibody by single B cell technique; VH SEQ ID NO: 278, VL SEQ ID NO: 328 (antibody, V domains shown)
VH: QVTLKESGPGILKPSQTLSLTCSFSGFSLSTSGVGVGWIRQPSGKGLEWLAHIWWDDEKYYNPSLKSHFTISKDTSRNQVFLKITSVDTADTATYYCVKEGDGMDYWGQGTSVTVSS
VL: QAVVTQESALTTSPGETVTLTCRSSTGAVATSNYANWVQEKPDHLFTGLIGGTNNRVPGVPARFSGSLIGDKAALTITGAQTEDEAIYFCALWYSNHWVFGGGTKLTVL
modifications: SB8 heavy chain variable region; SB8 light chain variable region
EC50 [2]: 0.93 nM
EC50 [3]: 0.91 nM

B6: SB5: anti-CDCP1 antibody by single B cell technique; VH SEQ ID NO: 275, VL SEQ ID NO: 325 (antibody, V domains shown)
VH: QVQLRESGPGLVAPSQSLSITCTVSGFSLTDFGVNWVRQPPGKGLEWLGIIWANGRIEYNSALKSRLSISKDNSRSQVFLKLNSLQTDDTARYYCARDHDYDVEAMDYWGQGTSVTVSA
VL: QIVLTQSPAIKSASPGEKVTMTCSASSSVIYMHWYQQKSGSSPKRWIYDTSKLASGVPVRFSGSGSGTSYSLTISTMEAEDAATYYCQQWSSYPPTFGGGTKVEIK
modifications: SB5 heavy chain variable region; SB5 light chain variable region
Internalization MDA-MB-231 (%) [1]: 15.63%
